Data on one variant can be found in IntAct's records for PubMed 23911326.

B1: Metabotropic glutamate receptor 5 (Mus musculus), Q3UVX5 (parent)
chain: MVLLLILSVLLLKEDVRGSAQSSERRVVAHMPGDIIIGALFSVHHQPTVDKVHERKCGAVREQYGIQRVEAMLHTLERINSDPTLLPNITLGCEIRDSCWHSAVALEQSIEFIRDSLISSEEEEGLVRCVDGSSSFRSKKPIVGVIGPGSSSVAIQVQNLLQLFNIPQIAYSATSMDLSDKTLFKYFMRVVPSDAQQARAMVDIVKRYNWTYVSAVHTEGNYGESGMEAFKDMSAKEGICIAHSYKIYSNAGEQSFDKLLKKLRSHLPKARVVACFCEGMTVRGLLMAMRRLGLAGEFLLLGSDGWADRYDVTDGYQREAVGGITIKLQSPDVKWFDDYYLKLRPETNLRNPWFQEFWQHRFQCRLEGFAQENSKYNKTCNSSLTLRTHHVQDSKMGFVINAIYSMAYGLHNMQMSLCPGYAGLCDAMKPIDGRKLLDSLMKTNFTGVSGDMILFDENGDSPGRYEIMNFKEMGKDYFDYINVGSWDNGELKMDDDEVWSKKNNIIRSVCSEPCEKGQIKVIRKGEVSCCWTCTPCKENEYVFDEYTCKACQLGSWPTDDLTGCDLIPVQYLRWGDPEPIAAVVFACLGLLATLFVTVIFIIYRDTPVVKSSSRELCYIILAGICLGYLCTFCLIAKPKQIYCYLQRIGIGLSPAMSYSALVTKTNRIARILAGSKKKICTKKPRFMSACAQLVIAFILICIQLGIIVALFIMEPPDIMHDYPSIREVYLICNTTNLGVVTPLGYNGLLILSCTFYAFKTRNVPANFNEAKYIAFTMYTTCIIWLAFVPIYFGSNYKIITMCFSVSLSATVALGCMFVPKVYIILAKPERNVRSAFTTSTVVRMHVGDGKSSSAASRSSSLVNLWKRRGSSGETLRYKDRRLAQHKSEIECFTPKGSMGNGGRATMSSSNGKSVTWAQNEKSTRGQHLWQRLSVHINKKENPNQTAVIKPFPKSTESRGQGAGAGGGSGPGAAGAGSAGCTATGGPEPPDAGPKALYDVAEAEERFPAAARPRSPSPISTLSHLAGSAGRTDDDAPSLHSETAARSSSSQGSLMEQISSVVTRFTANITELNSMMLSTAAAPGPPGTPICSSYLIPKEIQLPTTMTTFAEIQPLPAIEVTGGAQPATGPSPAQETPAGAEAAPGKPDLEELVALTPPSPFRDSVDSGSTTPNSPVSESALCIPSSPKYDTLIIRDYTQSSSSL
partner: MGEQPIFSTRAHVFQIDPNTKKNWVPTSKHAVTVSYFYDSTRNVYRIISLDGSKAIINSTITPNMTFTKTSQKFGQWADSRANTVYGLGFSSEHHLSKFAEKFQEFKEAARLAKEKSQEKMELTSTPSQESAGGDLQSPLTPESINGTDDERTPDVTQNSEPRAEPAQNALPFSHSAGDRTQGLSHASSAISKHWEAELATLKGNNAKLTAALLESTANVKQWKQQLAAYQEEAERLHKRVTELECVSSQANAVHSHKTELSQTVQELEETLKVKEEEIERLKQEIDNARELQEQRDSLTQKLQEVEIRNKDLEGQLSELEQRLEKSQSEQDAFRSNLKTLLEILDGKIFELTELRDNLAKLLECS

This assay covers variants of B1. The settings on record: with Homer1, Q9Z214-1.
Take F1160R: the “effect of a mutation on the interaction” value is “disrupting interaction strength”.
